Measurements: patent US20240239891A1 (Stanford University, published 2024)
Residue numbers refer to the chain shown, from its start. Blank lines part the entries; values can stand above or below the binder they belong to.

Columns and labels:
[1] = molecular target: T1, extracellular domain (ECD) of human GODZILLA (RNF167) (human, UniProt Q9H6Y7 25-173, limits assumed); test: SPR (Biacore), titrations at equilibrium, Biacore Analysis Software; row GOLIATH-A1, column GODZILLA (hRNF167)
T1 construct: extracellular domain; also called GODZILLA ECD

[2] = molecular target: T2, extracellular domain (ECD) of human GRAIL (RNF128) (human, UniProt Q8TEB7 39-207, limits assumed); test: SPR (Biacore), titrations at equilibrium, Biacore Analysis Software; row GOLIATH-A1, column GRAIL (hRNF128)
T2 construct: extracellular domain; also called GRAIL ECD
T2 sequence (looked up): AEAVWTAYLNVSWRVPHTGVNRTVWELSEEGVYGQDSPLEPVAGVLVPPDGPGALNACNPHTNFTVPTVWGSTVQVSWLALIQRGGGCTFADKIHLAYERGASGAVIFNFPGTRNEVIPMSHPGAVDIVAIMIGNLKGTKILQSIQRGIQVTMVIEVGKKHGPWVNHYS

[3] = molecular target: T3, extracellular domain (ECD) of human GOLIATH (RNF130) (human, UniProt Q86XS8 28-194); test: SPR (Biacore), titration at equilibrium, nanobody on ECD
T3 construct: extracellular domain; also called GOLIATH ECD
T3 sequence (looked up): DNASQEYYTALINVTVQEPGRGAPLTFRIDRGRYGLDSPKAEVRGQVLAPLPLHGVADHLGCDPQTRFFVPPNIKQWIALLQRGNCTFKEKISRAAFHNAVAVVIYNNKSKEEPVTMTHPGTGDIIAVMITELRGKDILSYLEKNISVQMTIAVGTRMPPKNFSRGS

[4] = molecular target: T3, extracellular domain (ECD) of human …; test: SPR (Biacore), titrations at equilibrium, Biacore Analysis Software; row GRAIL-E2, column GOLIATH (hRNF130)
[5] = molecular target: T1, extracellular domain (ECD) of human …; test: SPR (Biacore), titrations at equilibrium, Biacore Analysis Software; row GRAIL-E2, column GODZILLA (hRNF167)
[6] = molecular target: T2, extracellular domain (ECD) of human …; test: SPR (Biacore), titration at equilibrium, nanobody on ECD
[7] = molecular target: T4, extracellular domain (ECD) of human or mouse RNF43 (human or mouse); test: SPR (Biacore), nanobody on ECD
T4 construct: extracellular domain; also called RNF43 ECD

hRNF43 ECD = molecular target: T5, hRNF43 ECD; test: SPR (Biacore), ligand hRNF43 ECD, nanobody as analyte
T5 construct: The human half of m18, which leaves the species open; also called extracellular domain of human RNF43
T5 chain: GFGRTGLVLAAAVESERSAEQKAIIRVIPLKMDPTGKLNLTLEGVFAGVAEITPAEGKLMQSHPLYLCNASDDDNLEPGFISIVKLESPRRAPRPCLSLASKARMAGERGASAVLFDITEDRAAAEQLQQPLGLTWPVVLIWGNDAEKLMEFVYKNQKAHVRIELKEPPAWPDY

mRNF43 ECD [8] = molecular target: T6, mRNF43 ECD; test: SPR (Biacore), ligand mRNF43 ECD, nanobody as analyte
T6 construct: The mouse half of m18, which leaves the species open; also called extracellular domain of mouse RNF43
T6 chain: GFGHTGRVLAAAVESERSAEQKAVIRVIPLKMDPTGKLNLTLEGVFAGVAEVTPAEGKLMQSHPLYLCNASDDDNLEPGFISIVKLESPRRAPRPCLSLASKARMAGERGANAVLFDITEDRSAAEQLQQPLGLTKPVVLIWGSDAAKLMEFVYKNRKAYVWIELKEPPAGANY

[9] = molecular target: T1, extracellular domain (ECD) of human …; test: SPR (Biacore), titrations at equilibrium, Biacore Analysis Software; row GRAIL-E1, column GODZILLA (hRNF167)
[10] = molecular target: T3, extracellular domain (ECD) of human …; test: SPR (Biacore), titrations at equilibrium, Biacore Analysis Software; row GRAIL-E1, column GOLIATH (hRNF130)
[11] = molecular target: T7, extracellular domain (ECD) of human or mouse ZNRF3 (human or mouse); test: SPR (Biacore), nanobody on ECD
T7 construct: extracellular domain; also called ZNRF3 ECD

mRNF43 ECD [12] = molecular target: T6, mRNF43 ECD; test: SPR (Biacore), ligand mRNF43 ECD, analyte RNF43 -A4
[13] = molecular target: T1, extracellular domain (ECD) of human …; test: SPR (Biacore), ligand hRNF167 ECD (GODZILLA), analyte GOLIATH-F8 [CONT. 3]
[14] = molecular target: T2, extracellular domain (ECD) of human …; test: SPR (Biacore), titrations at equilibrium, Biacore Analysis Software; column ECD GRAIL (hRNF128)
[15] = molecular target: T2, extracellular domain (ECD) of human …; test: SPR (Biacore), ligand hRNF128 ECD (GRAIL), analyte GOLIATH-F2 [CONT. 2]
[16] = molecular target: T1, extracellular domain (ECD) of human …; test: SPR (Biacore), ligand hRNF167 ECD (GODZILLA), analyte GOLIATH-F2 [CONT. 2]
[17] = molecular target: T1, extracellular domain (ECD) of human …; test: SPR (Biacore), titrations at equilibrium, Biacore Analysis Software; row GOLIATH-D1, column GODZILLA (hRNF167)
[18] = molecular target: T3, extracellular domain (ECD) of human …; test: SPR (Biacore), ligand hRNF130 ECD (GOLIATH), analyte GRAIL-D1
[19] = molecular target: T1, extracellular domain (ECD) of human …; test: SPR (Biacore), titrations at equilibrium, Biacore Analysis Software; row GRAIL-D1, column GODZILLA (hRNF167)
hZNRF3 ECD = molecular target: T8, hZNRF3 ECD; test: SPR (Biacore), ligand hZNRF3 ECD, nanobody as analyte
T8 construct: The human half of m19, which leaves the species open; also called extracellular domain of human ZNRF3
T8 chain: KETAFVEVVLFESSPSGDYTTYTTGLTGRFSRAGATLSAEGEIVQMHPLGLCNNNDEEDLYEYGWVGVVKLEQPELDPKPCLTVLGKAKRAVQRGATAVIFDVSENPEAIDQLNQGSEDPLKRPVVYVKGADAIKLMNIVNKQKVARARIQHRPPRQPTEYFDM

mZNRF3 ECD = molecular target: T9, mZNRF3 ECD; test: SPR (Biacore), ligand mZNRF3 ECD, nanobody as analyte
T9 construct: The mouse half of m19, which leaves the species open; also called extracellular domain of mouse ZNRF3
T9 chain: T8 chain with Y22H, T36M, R153L

binding result [1]: no binding
binding result [2]: no binding
Kd [3]: 8.18 nM
B1: GOLIATH (RNF130) VHH of SEQ ID NO: 5 (VHH)
VHH: QVQLQESGGGLVQAGGSLRLSCAASGYISGYYVMGWYRQAPGKEREFVASISYGASTYYADSVKGRFTISRDNAKNTVYLQMNSLKPEDTAVYYCAVDFDSNYAHTYWGQGTQVTVSS
notes: also called A1; GOLIATH-A1

binding result [4]: no binding
binding result [5]: no binding
Kd [6]: 13.5 nM
B2: GRAIL (RNF128) VHH of SEQ ID NO: 3 (VHH)
VHH: QVQLQESGGGLVQAGGSLRLSCAASGSISGGKGMGWYRQAPGKEREFVAAIGSGAITYYADSVKGRFTISRDNAKNTVYLQMNSLKPEDTAVYYCAVYTTALDEYPYWGQGTQVTVSS
notes: also called E2; GRAIL-E2

Kd [7]: 163 nM
binding result (hRNF43 ECD): binds
binding result (mRNF43 ECD [8]): binds
B3: RNF43 VHH of SEQ ID NO: 11 (VHH)
VHH: QVQLQESGGGLVQAGGSLRLSCAASGTIFGLSDMGWYRQAPGKEREFVAAIAGGTITYYADSVKGRFTISRDNAKNTVYLQMNSLKPEDTAVYYCAAYKYDERYHSYWGQGTQVTVSS
notes: also called RNF43 nanobody

Kd [6]: 148 nM
B4: GRAIL (RNF128) VHH of SEQ ID NO: 4 (VHH)
VHH: QVQLQESGGGLVQAGGSLRLSCAASGTISYYYAMGWYRQAPGKEREFVAAIDLGTSTYYADSVKGRFTISRDNAKNTVYLQMNSLKPEDTAVYYCAAWSDYVTELPYWGQGTQVTVSS
notes: also called GRAIL nanobody

binding result [9]: no binding
binding result [10]: no binding
Kd [6]: 7.92 nM
B5: GRAIL (RNF128) VHH of SEQ ID NO: 2 (VHH)
VHH: QVQLQESGGGLVQAGGSLRLSCAASGNISVQLDMGWYRQAPGKEREFVAAINQGTTTYYADSVKGRFTISRDNAKNTVYLQMNSLKPEDTAVYYCAVYLYDIWNHPYWGQGTQVTVSS
notes: also called E1; GRAIL-E1

Kd [7]: 41.5 nM
B6: RNF43 VHH of SEQ ID NO: 12 (VHH)
VHH: QVQLQESGGGLVQAGGSLRLSCAASGSIFWKPVMGWYRQAPGKEREFVAAITSGTNTYYADSVKGRFTISRDNAKNTVYLQMNSLKPEDTAVYYCAVDDYDVVEYPYWGQGTQVTVSS
notes: also called RNF43 nanobody

Kd [11]: 18.1 nM
B7: ZNRF3 VHH of SEQ ID NO: 13 (VHH)
VHH: QVQLQESGGGLVQAGGSLRLSCAASGTIFYTLFMGWYRQAPGKEREFVAGIGRGGITYYADSVKGRFTISRDNAKNTVYLQMNSLKPEDTAVYYCAVWYDFLHSDSQAYSYWGQGTQVTVSS
notes: also called ZNRF3 nanobody

Kd [7]: 315 nM
B8: RNF43 VHH of SEQ ID NO: 10 (VHH)
VHH: QVQLQESGGGLVQAGGSLRLSCAASGTIFDDLLMGWYRQAPGKERELVAAIGAGATTNYADSVKGRFTISRDNAKNTVYLQMNSLKPEDTAVYYCAAWWLYYKGDWALYLYWGQGTQVTVSS
notes: also called RNF43 nanobody
binding result (mRNF43 ECD [12]): no binding (tested: highest concentration not legible)

Kd [14]: 70.2 nM
Kd [3]: 130 nM
B9: GOLIATH (RNF130) VHH of SEQ ID NO: 8 (VHH)
VHH: QVQLQESGGGLVQAGGSLRLSCAASGTISFIGYMGWYRQAPGKERELVASIASGTSTYYADSVKGRFTISRDNAKNTVYLQMNSLKPEDTAVYYCAATQYIQDAHRYWGQGTQVTVSS
notes: also called GOLIATH nanobody
binding result [13]: no binding (tested: 2000 (unit not printed))

B10: GOLIATH (RNF130) VHH of SEQ ID NO: 7 (VHH)
VHH: B9 VHH with F30V, Q99H
notes: also called GOLIATH nanobody
binding result [15]: no binding (tested: 4000 (unit not printed))
binding result [16]: no binding (tested: 4000 (unit not printed))

binding result [17]: no binding
Kd [3]: 6.38 nM
B11: GOLIATH (RNF130) VHH of SEQ ID NO: 6 (VHH)
VHH: B9 VHH with A104V
notes: also called D1; GOLIATH-D1

binding result [19]: no binding
Kd [6]: 8.99 nM
B12: GRAIL (RNF128) VHH of SEQ ID NO: 1 (VHH)
VHH: QVQLQESGGGLVQAGGSLRLSCAASGYIFYGVHMGWYRQAPGKEREFVAAIDLGTTTYYADSVKGRFTISRDNAKNTVYLQMNSLKPEDTAVYYCAVYFDGLTNLPYWGQGTQVTVSS
notes: Purified nanobody; also called GRAIL nanobody
binding result [18]: no binding (tested: 500 (unit not printed))

binding result (hZNRF3 ECD): binds
Kd [11]: 0.7 nM
binding result (mZNRF3 ECD): binds
B13: ZNRF3 VHH of SEQ ID NO: 14 (VHH)
VHH: QVQLQESGGGLVQAGGSLRLSCAASGTISYAHIMGWYRQAPGKERELVAGISQGSITNYADSVKGRFTISRDNAKNTVYLQMNSLKPEDTAVYYCAVISYDYIKSVPFRYWGQGTQVTVSS
notes: also called ZNRF3 nanobody
